Assay results reported in patent US20240301071A1 (Alector, published 2024).

T1: soluble human FcgR2B (human, UniProt P31994 46-217)
T1 construct: also called CD32B
T1 sequence (looked up): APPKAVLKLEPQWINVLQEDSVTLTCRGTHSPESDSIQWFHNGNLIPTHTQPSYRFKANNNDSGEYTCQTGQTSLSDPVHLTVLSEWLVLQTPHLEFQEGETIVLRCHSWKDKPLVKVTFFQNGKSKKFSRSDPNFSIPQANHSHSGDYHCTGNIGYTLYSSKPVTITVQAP

T2: soluble human FcgR2A R131 (human, UniProt P12318 36-218)
T2 construct: also called CD32A-R131
T2 sequence (looked up): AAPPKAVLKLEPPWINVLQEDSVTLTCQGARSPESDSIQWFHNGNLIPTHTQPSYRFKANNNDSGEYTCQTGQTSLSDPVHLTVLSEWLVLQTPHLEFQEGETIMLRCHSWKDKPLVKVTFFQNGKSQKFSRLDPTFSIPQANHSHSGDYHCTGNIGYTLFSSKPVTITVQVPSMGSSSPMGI

T3: soluble human FcgR2A H131 (human, UniProt P12318 36-218)
T3 construct: also called CD32A-H131
T3 sequence (looked up): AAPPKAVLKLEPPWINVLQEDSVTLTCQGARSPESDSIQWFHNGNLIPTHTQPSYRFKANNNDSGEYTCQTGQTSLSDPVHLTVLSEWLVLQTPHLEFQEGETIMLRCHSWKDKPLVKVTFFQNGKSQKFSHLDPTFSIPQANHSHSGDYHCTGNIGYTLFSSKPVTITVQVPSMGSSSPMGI


Experiments:
[1] = target: T4, soluble human FcgR3A V158 (human, UniProt P08637 17-208); experiment: BLI (Octet RED96), antibody captured by anti-human Fab-CH1, soluble human FcR
T4 construct: also called CD16A V158
Protocol: (§1) FcR affinity measurements for anti-SIRPA antibody Fc variants were obtained using bio-layer interferometry (BLI) on a Pall ForteBio Octet RED96 instrument. […] Single cycle kinetics were performed with 100 nM of soluble human FcRs flowed over captured antibody to record traces (300 s association time, 300 s dissociation time). Data analysis was performed using ForteBio Data Analysis Software, version 9.0. Standard kinetic buffer (PBS, 0.1% BSA, 0.02% Tween-20, pH 7.2) was used for the assay and for preparing reagents.

[2] = target: T5, soluble human FcgR3A F158 (human, UniProt P08637 17-208); experiment: as above
T5 construct: also called CD16A F158
Protocol: as §1

[3] = target: T6, human SIRPA on human macrophages (primary monocyte-derived macrophages; U937 line) (human, UniProt P78324 31-504); experiment: cell-based or functional assay
[4] = target: T1, soluble human FcgR2B; experiment: BLI (Octet RED96), antibody captured by anti-human Fab-CH1, 100 nM soluble human FcR
Protocol: as §1

[5] = target: T7, soluble human FcgR1 (human, UniProt P12314 16-288); experiment: as above
T7 construct: also called FcγRI; CD64
Protocol: as §1

[6] = target: T2, soluble human FcgR2A R131; experiment: as above
Protocol: as §1

[7] = target: T3, soluble human FcgR2A H131; experiment: as above
Protocol: as §1

[8] = target: T6, human SIRPA on human macrophages …; experiment: cell-based or functional assay; remark: listed apart in the source
[9] = target: T1, soluble human FcgR2B; experiment: BLI (Octet RED96), antibody captured by anti-human Fab-CH1, soluble human FcR
Protocol: as §1

[10] = target: T2, soluble human FcgR2A R131; experiment: as above
Protocol: as §1

[11] = target: T3, soluble human FcgR2A H131; experiment: as above
Protocol: as §1

T6 sequence (P78324 31-370): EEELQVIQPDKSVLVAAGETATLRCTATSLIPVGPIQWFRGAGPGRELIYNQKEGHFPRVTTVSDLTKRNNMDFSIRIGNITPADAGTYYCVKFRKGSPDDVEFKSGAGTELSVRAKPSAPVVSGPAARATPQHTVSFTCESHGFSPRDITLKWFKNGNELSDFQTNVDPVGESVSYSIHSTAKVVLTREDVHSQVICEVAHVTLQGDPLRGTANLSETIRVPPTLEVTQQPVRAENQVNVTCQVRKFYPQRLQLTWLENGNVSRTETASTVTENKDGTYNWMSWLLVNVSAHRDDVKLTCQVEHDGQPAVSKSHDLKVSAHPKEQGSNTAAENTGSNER
T7 sequence (P12314 16-288 limits assumed): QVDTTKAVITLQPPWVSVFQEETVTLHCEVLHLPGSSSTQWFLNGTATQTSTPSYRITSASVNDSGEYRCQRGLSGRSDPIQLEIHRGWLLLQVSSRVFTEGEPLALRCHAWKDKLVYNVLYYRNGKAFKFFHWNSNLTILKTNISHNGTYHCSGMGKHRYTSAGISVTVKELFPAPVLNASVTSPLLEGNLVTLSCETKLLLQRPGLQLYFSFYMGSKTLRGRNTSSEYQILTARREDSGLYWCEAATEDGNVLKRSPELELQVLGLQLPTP
T4 sequence (P08637 17-208 F176V limits assumed): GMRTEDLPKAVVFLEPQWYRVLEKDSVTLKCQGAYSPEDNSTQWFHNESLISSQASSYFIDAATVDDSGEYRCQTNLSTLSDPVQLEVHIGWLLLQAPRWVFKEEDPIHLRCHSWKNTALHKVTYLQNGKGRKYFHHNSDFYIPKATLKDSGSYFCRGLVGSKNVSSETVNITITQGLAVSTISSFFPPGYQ
T5 sequence (P08637 17-208 limits assumed): as the sequence (P08637 17-208 F176V limits assumed) above, with V160F counted along it

Row | Binder | binding result [1] | binding result [2] | EC50 (nM), phagocytosis of A375 cells by primary human macrophages [3] | Max, fold increase in phagocytosis over baseline activity [3] | binding result [4] | binding result [5] | binding result [6] | binding result [7] | IC50 (nM), SIRPA downregulation on human monocyte-derived macrophages [8] | Max % DR, SIRPA, human monocyte-derived macrophages [8] | binding result [9] | binding result [10] | binding result [11]
1 | 3F9-22 hIgG1 NSLF (antibody, also called 3F9-22 NSLF; 3F9-22NSLF) heavy: not shown light: DIQLTQSPSSLSASVGDRVTITCRASKSVSSGGYSYMHWYQQKPGKAPKLLIYLASNLESGVPSRFSGSGSGTDFTLTISSVQPEDFATYYCQHNRELPVTFGQGTKLEIKRTVAAPSVFIFPPSDEQLKSGTASVVCLLNNFYPREAKVQWKVDNALQSGNSQESVTEQDSKDSTYSLSSTLTLSKADYEKHKVYACEVTHQGLSSPVTKSFNRGEC | no binding (tested: 100 nM) | no binding (tested: 100 nM) | 0.458 nM | 1.77 fold | binds | binds | binds | binds | 0.0451 nM | 74.6% |  |  | 
2 | 3F9-22 hIgG1 LALAPS (antibody, also called 3F9-22 LALAPS) heavy: not shown light: DIQLTQSPSSLSASVGDRVTITCRASKSVSSGGYSYMHWYQQKPGKAPKLLIYLASNLESGVPSRFSGSGSGTDFTLTISSVQPEDFATYYCQHNRELPVTFGQGTKLEIKRTVAAPSVFIFPPSDEQLKSGTASVVCLLNNFYPREAKVQWKVDNALQSGNSQESVTEQDSKDSTYSLSSTLTLSKADYEKHKVYACEVTHQGLSSPVTKSFNRGEC | no binding (tested: 100 nM) | no binding (tested: 100 nM) |  |  |  | binds |  |  | 0.0447 nM | 41.6% | no binding (tested: 100 nM) | no binding (tested: 100 nM) | no binding (tested: 100 nM)
